Measurements reported in US20210253727A1 (CORVUS PHARMACEUTICALS, published 2021).

T1: CD73 (as used in the affinity measurements) (UniProt P21589 27-549, limits assumed)
T1 construct: also called CD73 antigen; 5'-nucleotidase
T1 sequence (looked up): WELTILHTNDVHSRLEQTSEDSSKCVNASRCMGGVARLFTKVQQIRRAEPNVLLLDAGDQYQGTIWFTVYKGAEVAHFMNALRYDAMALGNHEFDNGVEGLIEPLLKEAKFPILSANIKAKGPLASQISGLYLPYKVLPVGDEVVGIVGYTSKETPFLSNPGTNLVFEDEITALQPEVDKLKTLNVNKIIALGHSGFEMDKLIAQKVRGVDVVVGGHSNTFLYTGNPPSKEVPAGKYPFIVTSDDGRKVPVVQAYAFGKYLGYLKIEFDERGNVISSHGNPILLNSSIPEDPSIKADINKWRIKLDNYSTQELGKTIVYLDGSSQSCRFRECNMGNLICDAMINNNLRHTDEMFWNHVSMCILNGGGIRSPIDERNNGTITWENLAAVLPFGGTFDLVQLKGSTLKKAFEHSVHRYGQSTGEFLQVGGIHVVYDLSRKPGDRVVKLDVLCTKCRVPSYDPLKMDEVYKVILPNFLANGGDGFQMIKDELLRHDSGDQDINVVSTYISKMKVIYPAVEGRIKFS


Molecular target: T1, CD73 (as used in the affinity …)
Test: affinity measurement, method not stated

Kd [nM]	Binder
17.8	CPX-004 (humanized 1E9 antibody, BAP094-hum05) (antibody, human IgG1, V domains shown) VH: EVQLVQSGAEVKKPGATVKISCKVSGYTFTSYWITWIRQPPGKGLEWIGDIYPGSGNTNYNEKFKTRVTISADKSISTAYLQWSSLKASDTAMYYCAKEGGLTTEDYALDYWGQGTLVTVSS VL: DVVMTQSPLSLPVTLGQPASISCRASKNVSTSGYSYMHWYQQKPGQAPRLLIYLASNLESGIPPRFSGSGYGTDFTLTINNIESEDAAYYFCQHSRELPFTFGQGTKVEIK
19.5	CPX-003 (humanized 1E9 antibody, BAP094-hum03) (antibody, human IgG1, V domains shown) VH: QVQLVQSGAEVKKPGASVKVSCKASGYTFTSYWITWVRQARGQRLEWIGDIYPGSGNTNYNEKFKTRVTITADKSTSTAYMELSSLRSEDTAVYYCAKEGGLTTEDYALDYWGQGTLVTVSS VL: EIVLTQSPDFQSVTPKEKVTITCRASKNVSTSGYSYMHWYQQKPGKAPKLLIYLASNLESGIPPRFSGSGYGTDFTLTINNIESEDAAYYFCQHSRELPFTFGQGTKVEI
6.9	CPX-005 (humanized 1E9 antibody, BAP094-hum06) (antibody, human IgG1, V domains shown) VH: QVQLVQSGAEVEKPGASVKVSCKASGYTFTSYWITWVRQAPGQGLEWMGDIYPGSGNTNYNEKFKTRVTITADKSTSTAYMELSSLRSEDTAVYYCAKEGGLTTEDYALDYWGQGTLVTVSS VL: AIQLTQSPSSLSASVGDRVTITCRASKNVSTSGYSYMHWYQQKPGQAPRLLIYLASNLESGVPSRFSGSGSGTDFTFTISSLEAEDAATYYCQHSRELPFTFGQGTKVEIK
7.1	CPX-006 (humanized 1E9 antibody; BAP094-hum06-HC with BAP094-hum07-LC) (antibody, V domains shown, also called anti-CD73 (CPX-006)) VH: QVQLVQSGAEVEKPGASVKVSCKASGYTFTSYWITWVRQAPGQGLEWMGDIYPGSGNTNYNEKFKTRVTITADKSTSTAYMELSSLRSEDTAVYYCAKEGGLTTEDYALDYWGQGTLVTVSS VL: EIVLTQSPATLSLSPGERATLSCRASKNVSTSGYSYMHWYQQKPGQAPRLLIYLASNLESGIPPRFSGSGYGTDFTLTINNIESEDAAYYFCQHSRELPFTFGQGTKVEIK
15.9	CPX-007 (humanized 1E9 antibody; BAP094-hum03-HC with BAP094-hum07-LC) (antibody, human IgG1, V domains shown) VH: QVQLVQSGAEVKKPGASVKVSCKASGYTFTSYWITWVRQARGQRLEWIGDIYPGSGNTNYNEKFKTRVTITADKSTSTAYMELSSLRSEDTAVYYCAKEGGLTTEDYALDYWGQGTLVTVSS VL: EIVLTQSPATLSLSPGERATLSCRASKNVSTSGYSYMHWYQQKPGQAPRLLIYLASNLESGIPPRFSGSGYGTDFTLTINNIESEDAAYYFCQHSRELPFTFGQGTKVEIK
9.4	CPX-002 (chimeric 1E9 antibody, clone BAP094-01) (antibody, human IgG1, V domains shown, also called chimeric antibody) VH: QVQLQQPGAELVKPGASVKMSCKASGYTFTSYWITWVKQRPGQGLEWIGDIYPGSGNTNYNEKFKTKATLTVDTSSSTAYMQLSSLTSEDSAVYYCAKEGGLTTEDYALDYWGQGTLVTVSS VL: DIVLTQSPASLAVSLGQRATISCRASKNVSTSGYSYMHWYQQKPGQPPKLLIYLASNLESGVPTRFSGSGSGTDFTLNIHPVEEEDAATYYCQHSRELPFTFGSGTKLEIK
